One molecule from PMC13623948, “Steric Gating Contributes to the Preferential Ubiquitin Charging of BIRC6 by UBA6 versus UBA1” (Nature Communications, 2026) can be followed below.

For this test, the target named is T1, human UBA6 (full-length, amino acid residues 1-1052) (human, UniProt A0AVT1 1-1052).
T1 construct: UBA6, human, Uniprot entry A0AVT1, full-length, residues 1-1052; The cloning methods name only the N-terminal 3×FLAG tag; the BLI methods say that His-tagged ligands were captured on anti-Penta-His sensors; also called UBA6^WT
T1 sequence (looked up): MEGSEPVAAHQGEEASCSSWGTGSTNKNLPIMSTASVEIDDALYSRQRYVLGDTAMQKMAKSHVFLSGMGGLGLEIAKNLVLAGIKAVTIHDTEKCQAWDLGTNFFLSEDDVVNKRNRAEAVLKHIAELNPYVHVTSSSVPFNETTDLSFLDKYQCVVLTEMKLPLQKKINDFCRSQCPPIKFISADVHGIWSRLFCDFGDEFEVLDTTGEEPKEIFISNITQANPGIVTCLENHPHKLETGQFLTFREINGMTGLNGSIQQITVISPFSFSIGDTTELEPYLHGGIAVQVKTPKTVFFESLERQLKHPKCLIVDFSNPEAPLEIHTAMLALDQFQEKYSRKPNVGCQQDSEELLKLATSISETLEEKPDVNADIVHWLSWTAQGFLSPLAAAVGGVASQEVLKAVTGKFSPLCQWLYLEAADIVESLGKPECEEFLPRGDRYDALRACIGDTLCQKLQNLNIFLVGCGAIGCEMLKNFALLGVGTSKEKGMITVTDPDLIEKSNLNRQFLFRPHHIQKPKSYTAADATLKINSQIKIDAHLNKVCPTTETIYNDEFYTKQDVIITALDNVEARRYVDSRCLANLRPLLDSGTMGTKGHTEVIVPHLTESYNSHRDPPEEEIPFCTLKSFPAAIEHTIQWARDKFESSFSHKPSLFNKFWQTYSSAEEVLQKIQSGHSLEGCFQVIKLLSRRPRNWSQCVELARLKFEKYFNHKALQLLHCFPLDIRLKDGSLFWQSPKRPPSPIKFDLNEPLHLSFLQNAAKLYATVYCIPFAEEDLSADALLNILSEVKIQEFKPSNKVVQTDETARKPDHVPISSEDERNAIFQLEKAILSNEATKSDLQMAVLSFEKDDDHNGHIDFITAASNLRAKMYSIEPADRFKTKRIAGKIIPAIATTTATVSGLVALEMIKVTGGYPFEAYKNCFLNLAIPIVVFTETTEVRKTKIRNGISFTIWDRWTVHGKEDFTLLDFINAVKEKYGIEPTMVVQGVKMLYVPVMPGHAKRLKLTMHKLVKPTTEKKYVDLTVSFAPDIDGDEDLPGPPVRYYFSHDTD
In words: BLI; His-tagged E1 ligands on Anti-Penta-His (His1K) biosensors; analyte BIRC6^UBC or BIRC6^(UBCΔinsertion loop) at 40-3240 nM; 50 mM HEPES, pH 7.4, 150 mM NaCl, 0.05% Tween-20, 10 mM imidazole; 25 °C; steady-state 1:1 fit. The settings on record: both partners purified. (BLI is a label-free optical method that tracks binding on a fibre tip over time.)

For orientation: Kd means the concentration at which binding is half-saturated. A low value points to tighter binding.

B1: UBC domain of BIRC6 (residues 4520-4857) (domain or fragment)
chain: not shown
notes: BIRC6 UBC domain, human, Uniprot entry Q9NR09, residues 4520-4857; also called BIRC6^UBC; WT BIRC6^UBC; source: E. coli BL21 (DE3), purified (Ni-NTA, HRV 3C cleavage, SEC); not shown: His6, N-terminal, cleaved
B1 registered a Kd of 4.82 µM.
